Series [1] has as its target PEDV nsp12-A382R (porcine epidemic diarrhea virus (PEDV)). Description: native MS.
Another series concerns the target T1, PEDV nsp12 (porcine epidemic diarrhea virus (PEDV), UniProt P0C6Y4).
T1 sequence: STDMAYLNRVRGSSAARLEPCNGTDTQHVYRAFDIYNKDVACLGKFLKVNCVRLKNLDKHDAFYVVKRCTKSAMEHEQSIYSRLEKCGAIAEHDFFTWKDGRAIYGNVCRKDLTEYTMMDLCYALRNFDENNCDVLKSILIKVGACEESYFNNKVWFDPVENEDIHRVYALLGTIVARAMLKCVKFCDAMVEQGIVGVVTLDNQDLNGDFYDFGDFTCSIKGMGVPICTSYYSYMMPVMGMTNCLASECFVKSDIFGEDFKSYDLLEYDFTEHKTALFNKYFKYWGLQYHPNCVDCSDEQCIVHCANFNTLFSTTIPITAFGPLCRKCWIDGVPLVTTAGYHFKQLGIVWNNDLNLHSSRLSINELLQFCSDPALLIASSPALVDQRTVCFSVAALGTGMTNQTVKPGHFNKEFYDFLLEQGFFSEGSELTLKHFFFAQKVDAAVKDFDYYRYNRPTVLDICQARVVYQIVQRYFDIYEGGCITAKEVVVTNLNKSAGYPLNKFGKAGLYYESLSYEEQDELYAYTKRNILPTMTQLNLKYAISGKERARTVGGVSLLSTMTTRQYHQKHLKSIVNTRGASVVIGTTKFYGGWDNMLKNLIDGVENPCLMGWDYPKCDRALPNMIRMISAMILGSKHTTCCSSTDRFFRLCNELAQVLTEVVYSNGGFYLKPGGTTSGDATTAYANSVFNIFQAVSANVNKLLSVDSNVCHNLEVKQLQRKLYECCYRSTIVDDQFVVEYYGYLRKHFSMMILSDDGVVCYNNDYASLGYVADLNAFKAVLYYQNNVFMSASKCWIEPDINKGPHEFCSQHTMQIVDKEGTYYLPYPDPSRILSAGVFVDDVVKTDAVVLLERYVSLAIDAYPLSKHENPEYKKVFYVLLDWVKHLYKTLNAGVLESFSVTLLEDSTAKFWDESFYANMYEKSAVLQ
Nature of the series: native MS.

The target of series [2] is PEDV nsp12 (RdRp);PEDV nsp7;PEDV nsp8 (Porcine epidemic diarrhea virus …, UniProt P0C6Y4;P0C6Y4;P0C6Y4 4101-5027;3580-3662;3663-3857, ||). Description: native mass spectrometry.

Experimental findings from PMC11162792 (Nucleic Acids Research, 2023) are described below.

Usually stoichiometry N stands for a count of units in the complex or per binding partner. Regarding PEDV nsp12-A382R (enzyme), the stoichiometry N in series [1] came to 2.

B1: PEDV nsp7 (natural protein)
chain: SKLTDIKCSNVVLLGCLSSMNVSANSTEWAYCVDLHNKINLCNDPEKAQEMLLALLAFFLSKNSAFGLDDLLESYFNDNSMLQ
For B1, the “stoichiometry N” value with PEDV nsp12 was found to be 1.

B2: PEDV nsp8 (natural protein)
chain: SVASTYVGLPSYVIYENARQQYEDAVNNGSPPQLVKQLRHAMNVAKSEFDREASTQRKLDRMAEQAAAQMYKEARAVNRKSKVVSAMHSLLFGMLRRLDMSSVDTILNLAKDGVVPLSVIPAVSATKLNIVTSDIDSYNRIQREGCVHYAGTIWNIIDIKDNDGKVVHVKEVTAQNAESLSWPLVLGCERIVKLQ
With B2, in the series with PEDV nsp12, the “stoichiometry N” value came out at 2.

B3: Pair 1 primer/template RNA (short) (dsRNA)
RNA 1: CAUUCUCCUAAGAAGCUAUUAAAAUCACA
RNA 2: AAAAAGGGUUGUGAUUUUAAUAGCUUCUUAGGAGAAUG
As to B3, the binding result in series [2] was “binds”.
